In one series the target is T1, wBm-MurA (Wolbachia endosymbiont of Brugia malayi, UniProt Q5GRP6).
T1 construct: full-length 1278 bp ORF in pET28a (BamHI/XhoI), His6-tagged, expressed in E. coli Rosetta(DE3)pLysS, Ni-NTA purified, ~51 kDa, tag removal not mentioned
T1 sequence (Q5GRP6 1-425): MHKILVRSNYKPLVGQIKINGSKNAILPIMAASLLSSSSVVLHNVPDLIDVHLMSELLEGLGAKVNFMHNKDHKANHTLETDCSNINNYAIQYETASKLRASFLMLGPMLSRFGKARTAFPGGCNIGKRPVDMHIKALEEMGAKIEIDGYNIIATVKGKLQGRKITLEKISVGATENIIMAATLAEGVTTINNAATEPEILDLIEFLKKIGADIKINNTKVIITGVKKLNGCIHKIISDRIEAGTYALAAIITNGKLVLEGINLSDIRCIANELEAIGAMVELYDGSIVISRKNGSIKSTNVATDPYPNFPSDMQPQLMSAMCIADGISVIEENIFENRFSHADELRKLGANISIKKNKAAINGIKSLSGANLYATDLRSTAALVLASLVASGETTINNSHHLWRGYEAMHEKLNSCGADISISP
Briefly: malachite green phosphate release assay, […] min pre-incubation, […] h reaction. It is filed as biochemical. Conditions: 5 mM PEP, 0.6 mM UDPAG, pH 7.5, 37°C; competitive with PEP; covalent (as stated by authors).

Substrate in series [1]: CC(=O)N[C@H]1[C@@H](OP(=O)(O)OP(=O)(O)OC[C@H]2O[C@@H](n3ccc(=O)[nH]c3=O)[C@H](O)[C@@H]2O)O[C@H](CO)[C@@H](O)[C@@H]1O
Nature of the series: malachite green phosphate release assay, Michaelis-Menten non-linear fit. The class given is biochemical, Wolbachia endosymbiont of Brugia malayi. As to conditions: 1 mM PEP, 50 mM Tris-HCl pH 7.5, 10 mM KCl, 1 mM DTT, 10% glycerol, 37°C.

Substrate in series [2]: C=C(OP(=O)(O)O)C(=O)O
The series is described as above. The class given is biochemical, Wolbachia endosymbiont of Brugia malayi. As to conditions: 5 mM UDPAG, 50 mM Tris-HCl pH 7.5, 10 mM KCl, 1 mM DTT, 10% glycerol, 37°C.

As for `C[C@@H]1O[C@@H]1P(=O)(O)O` [fosfomycin], the “fold decrease of activity at 50 mM” value on wBm-MurA is reported as ~ 2 fold.

B1: wBm-MurA (Wolbachia endosymbiont strain TRS of Brugia malayi) (protein)
chain: T1 sequence (Q5GRP6 1-425)
notes: full-length 1278 bp ORF in pET28a (BamHI/XhoI), His6-tagged, expressed in E. coli Rosetta(DE3)pLysS, Ni-NTA purified, ~51 kDa, tag removal not mentioned
The Km is the substrate concentration at which the rate is half of its maximum. In the case of B1, the results for the Km in series [1] and in series [2] were 31.49 µM and 9.198 µM, respectively.

The values above are taken from publication PMC4062475, “Cloning, Expression and Characterization of UDP-N-Acetylglucosamine Enolpyruvyl Transferase (MurA) from Wolbachia Endosymbiont of Human Lymphatic Filarial Parasite Brugia malayi” (PLoS ONE, 2014).
